The values below come from publication PMC4605270.

In the assay the target is Borrelia burgdorferi hybrid histidine kinase Hk1 periplasmic sensor domain D1 (Borrelia burgdorferi strain 5A4 NP1). Put plainly: SEC.

For “Borrelia burgdorferi hybrid histidine kinase Hk1 periplasmic sensor domain D1 (domain or fragment)”, the stoichiometry N worked out at 2.
